# Reference: PMC2213037
# Target: Syk tyrosine kinase (mouse (endogenous in NMuMG)) (UniProt P48025)
# Assay: co-IP
# Chain of MMTV Env surface unit (SU, gp52) (P03374 99-688): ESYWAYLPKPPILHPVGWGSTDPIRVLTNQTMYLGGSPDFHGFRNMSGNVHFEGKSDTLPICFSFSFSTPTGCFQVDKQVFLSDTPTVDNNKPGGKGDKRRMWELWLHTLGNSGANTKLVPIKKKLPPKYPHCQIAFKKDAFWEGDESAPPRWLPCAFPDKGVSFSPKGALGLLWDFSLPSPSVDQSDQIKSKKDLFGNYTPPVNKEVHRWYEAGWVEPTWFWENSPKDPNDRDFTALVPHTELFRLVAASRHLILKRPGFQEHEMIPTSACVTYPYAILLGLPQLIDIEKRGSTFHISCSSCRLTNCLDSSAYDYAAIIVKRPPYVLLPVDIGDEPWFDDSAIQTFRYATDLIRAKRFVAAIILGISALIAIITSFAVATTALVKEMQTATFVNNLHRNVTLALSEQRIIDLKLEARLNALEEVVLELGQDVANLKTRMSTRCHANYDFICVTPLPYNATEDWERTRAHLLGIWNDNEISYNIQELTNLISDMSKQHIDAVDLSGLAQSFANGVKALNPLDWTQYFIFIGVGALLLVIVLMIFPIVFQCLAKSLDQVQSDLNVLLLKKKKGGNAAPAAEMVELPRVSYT
# Chain of Syk tyrosine kinase (mouse (endogenous in NMuMG)) (P48025 whole entry): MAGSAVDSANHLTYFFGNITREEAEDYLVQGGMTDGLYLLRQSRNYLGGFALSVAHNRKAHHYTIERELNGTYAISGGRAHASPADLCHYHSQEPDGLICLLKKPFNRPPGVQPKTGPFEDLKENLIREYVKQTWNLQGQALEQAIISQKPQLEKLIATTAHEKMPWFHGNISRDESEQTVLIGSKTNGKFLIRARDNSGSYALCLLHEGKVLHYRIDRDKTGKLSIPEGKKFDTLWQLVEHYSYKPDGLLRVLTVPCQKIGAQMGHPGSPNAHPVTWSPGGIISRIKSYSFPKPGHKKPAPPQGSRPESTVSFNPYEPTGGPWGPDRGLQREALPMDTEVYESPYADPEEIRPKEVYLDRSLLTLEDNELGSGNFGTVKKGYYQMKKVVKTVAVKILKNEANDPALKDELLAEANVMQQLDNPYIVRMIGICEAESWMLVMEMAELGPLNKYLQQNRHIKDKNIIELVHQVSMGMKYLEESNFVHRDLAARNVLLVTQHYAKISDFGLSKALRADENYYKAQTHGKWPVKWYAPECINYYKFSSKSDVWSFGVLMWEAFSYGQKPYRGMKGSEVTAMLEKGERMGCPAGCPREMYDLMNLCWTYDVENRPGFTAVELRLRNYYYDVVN
substance,measurement,value
"MMTV Env surface unit (SU, gp52) (from UniProt P03374 99-454) (natural protein)",percent of SU coprecipitated with Syk,< 34%
